The values below come from PMC5716572, “Regulation of potassium dependent ATPase (kdp) operon of Deinococcus radiodurans”.

For data set [1], the target named is T1, RR (KdpE-like response regulator) (Deinococcus radiodurans R1 ATCC BAA-816) (UniProt Q9RZP1).
T1 sequence: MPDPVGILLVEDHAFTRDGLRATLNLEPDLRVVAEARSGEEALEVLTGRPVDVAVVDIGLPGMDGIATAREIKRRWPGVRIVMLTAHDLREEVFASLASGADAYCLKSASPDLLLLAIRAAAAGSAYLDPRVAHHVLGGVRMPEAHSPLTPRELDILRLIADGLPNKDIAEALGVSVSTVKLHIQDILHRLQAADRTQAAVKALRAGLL
Description: EMSA. The following applies: 20 mM HEPES pH 7.6, 10 mM (NH4)2SO4, 30 mM KCl, 1 mM EDTA, 1 mM DTT, 0.2% Tween20, 37°C 1 h; 10% native PAGE in 0.5X TBE. (In general: In EMSA bound probe runs differently from free probe, usually more slowly.)

The target in data set [2] is T2, RR (KdpE-like response regulator) (Deinococcus radiodurans R1 ATCC BAA-816, UniProt Q9RZP1 1-209).
T2 sequence: T1 sequence with R131Q
Description: EMSA. The following applies: apparent; Hill coefficient 1.36 ± 0.17; unphosphorylated; 20 mM HEPES pH 7.6, 10 mM (NH4)2SO4, 30 mM KCl, 1 mM EDTA, 1 mM DTT, 0.2% Tween20, 37°C 1 h; 10% native PAGE in 0.5X TBE.

Data set [3] addresses T2, RR (KdpE-like response regulator). Description: EMSA; 12% native PAGE; 20 mM HEPES pH 7.6, 10 mM (NH4)2SO4, 30 mM KCl, 1 mM EDTA, 1 mM DTT, 0.2% Tween20, 37°C 1 h; 10% native PAGE in 0.5X TBE. To be noted: protein: recombinant; tags: C-terminal His tag (pET29b NdeI/XhoI, Ni-NTA; position implied by vector); chain copies: 2; label: DIG-ddUTP; blunt.

Changes are numbered by the printed parent chain.

Consider “GGCCTTGATGAGGTTCTTGTCCTTGGCGTACTTGTTGAGCACGCGGGTGTACGCCGTCTTGAAGCCGGTCAGCGGGGTGCCGCCGTCGCGGGTGCGGATCATGTTGGCGTAGGTCAGGATGTTGTCGCTGGCGTAGGTGTTGGCGTGGATAAA (double strand) [nsDNA (DR_0906 fragment)]”, for which the binding entry in data set [1] was “no binding”.

On to PkdpB-200, for which, in data set [2], the Kd is 3.62 µM.

B1: PkdpB-38 (dsDNA)
DNA 1: AACGGCGCTATGAGTCTTTCTTCTTTCCGGTGGCGGCC
DNA 2: GGCCGCCACCGGAAAGAAGAAAGACTCATAGCGCCGTT
As to B1, the binding result in data set [3] is “binds”.
